In article PMC2660415:

Key:
Assay in all cases: SEC; gel filtration on Superdex 200 (AKTA-FPLC) followed by SDS-PAGE; P proteins released from GST by thrombin; P particles form a peak at ~830 kDa and the P dimer at ~69 kDa
[1] = target: Boxer (GI-8) norovirus P domain with C-terminal … peptide, wild type (P particle / P dimer) (norovirus strain Boxer (GI-8))
[2] = target: MOH (GII-5) norovirus P domain with C-terminal … peptide, wild type (P particle / P dimer) (norovirus strain MOH (GII-5))
[3] = target: Norwalk virus (GI-1) P domain with N-terminal CNGRC peptide, wild type (P particle / P dimer) (Norwalk virus (GI-1))
[4] = target: VA207 (GII-9) norovirus P domain with C-terminal … peptide, wild type (P particle / P dimer) (norovirus strain VA207 (GII-9))

Substance: Boxer (GI-8) norovirus P domain with C-terminal … peptide, wild type (P particle / P dimer) (domain or fragment)
- efficiency of P particle formation [1]: 80%

Substance: MOH (GII-5) norovirus P domain with C-terminal … peptide, wild type (P particle / P dimer) (domain or fragment)
- efficiency of P particle formation [2]: 80%

Substance: Norwalk virus (GI-1) P domain with N-terminal CNGRC peptide, wild type (P particle / P dimer) (domain or fragment)
- efficiency of P particle formation [3]: 70%

Substance: VA207 (GII-9) norovirus P domain with C-terminal … peptide, wild type (P particle / P dimer) (domain or fragment)
- efficiency of P particle formation [4]: 90%
